Test results published in patent publication US20150258192A1, “COMPOSITIONS AND METHODS FOR PREVENTING OR TREATING CHRONIC LUNG ALLOGRAFT DYSFUNCTION (CLAD) AND IDIOPATHIC PULMONARY FIBROSIS (IPF)” (priority 2014, published 2015).
No end group written: not given here.

Target: PDGFRα(V561D)(h) (Homo sapiens, UniProt P16234, V561D)
Assay: Kinase Profiling Assay
Type: biochemical
Details: peptide 100 μM
Method in brief: (§1)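 Specificity of MK2 inhibitory peptides is assessed against a panel of 266 human kinases. Kinase transfers a radiolabeled phosphate from ATP onto a positively charged substrate, which is trapped on a negatively charged filter and quantified by scintillation counting against full-activity control; duplicate determinations.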

| Sequence | % activity [%] |
| --- | --- |
| FAKLAARLYRKALARQLGVAA [MMI-0300] | 82 |
| HRRIKAWLKKIKALARQLGVAA (Mammal) [MMI-0500] | 146 |
| KAFAKLAARLYRKALARQLGVAA [MMI-0400] | 100 |

Target: T1, SRPK2(h) (Homo sapiens, UniProt P78362)
T1 construct: purchased Millipore
T1 sequence (P78362 whole entry): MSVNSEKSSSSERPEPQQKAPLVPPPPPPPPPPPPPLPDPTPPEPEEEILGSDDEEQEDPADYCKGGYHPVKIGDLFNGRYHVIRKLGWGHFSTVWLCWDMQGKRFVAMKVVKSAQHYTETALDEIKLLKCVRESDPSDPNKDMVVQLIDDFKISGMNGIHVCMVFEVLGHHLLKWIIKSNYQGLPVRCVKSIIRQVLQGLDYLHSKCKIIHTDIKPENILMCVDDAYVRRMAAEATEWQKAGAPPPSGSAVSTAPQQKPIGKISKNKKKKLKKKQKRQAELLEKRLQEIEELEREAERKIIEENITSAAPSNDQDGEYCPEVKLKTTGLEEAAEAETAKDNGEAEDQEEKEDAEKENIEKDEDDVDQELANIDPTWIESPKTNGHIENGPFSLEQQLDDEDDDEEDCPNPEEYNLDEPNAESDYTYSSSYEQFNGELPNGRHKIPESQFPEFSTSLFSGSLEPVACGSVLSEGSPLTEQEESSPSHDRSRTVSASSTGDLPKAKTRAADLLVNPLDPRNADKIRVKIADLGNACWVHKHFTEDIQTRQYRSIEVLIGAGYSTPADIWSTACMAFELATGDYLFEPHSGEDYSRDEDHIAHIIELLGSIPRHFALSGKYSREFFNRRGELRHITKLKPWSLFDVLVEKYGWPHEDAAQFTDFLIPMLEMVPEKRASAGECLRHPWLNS
Assay: Kinase Profiling Assay
Type: biochemical
Details: peptide 100 μM
Method in brief: as §1

| Sequence | % activity [%] |
| --- | --- |
| HRRIKAWLKKIKALARQLGVAA (Mammal) [MMI-0500] | 80 |
| KAFAKLAARLYRKALARQLGVAA [MMI-0400] | 97 |
| YARAAARQARAKALARQLGVAA [MMI-0100] | 92 |
| YARAAARQARAKALNRQLGVA (Mammal) [MMI-0200] | 100 |

Target: Fgr(h) (Homo sapiens, UniProt P09769)
Assay: Kinase Profiling Assay
Type: biochemical
Details: peptide 100 μM
Method in brief: as §1

| Sequence | % activity [%] |
| --- | --- |
| FAKLAARLYRKALARQLGVAA [MMI-0300] | 60 |
| KAFAKLAARLYRKALARQLGVAA [MMI-0400] | 47 |
| YARAAARQARAKALNRQLGVA (Mammal) [MMI-0200] | 71 |

Target: T2, MSK2(h) (Homo sapiens, UniProt O75676)
T2 construct: purchased Millipore
T2 sequence (O75676 whole entry): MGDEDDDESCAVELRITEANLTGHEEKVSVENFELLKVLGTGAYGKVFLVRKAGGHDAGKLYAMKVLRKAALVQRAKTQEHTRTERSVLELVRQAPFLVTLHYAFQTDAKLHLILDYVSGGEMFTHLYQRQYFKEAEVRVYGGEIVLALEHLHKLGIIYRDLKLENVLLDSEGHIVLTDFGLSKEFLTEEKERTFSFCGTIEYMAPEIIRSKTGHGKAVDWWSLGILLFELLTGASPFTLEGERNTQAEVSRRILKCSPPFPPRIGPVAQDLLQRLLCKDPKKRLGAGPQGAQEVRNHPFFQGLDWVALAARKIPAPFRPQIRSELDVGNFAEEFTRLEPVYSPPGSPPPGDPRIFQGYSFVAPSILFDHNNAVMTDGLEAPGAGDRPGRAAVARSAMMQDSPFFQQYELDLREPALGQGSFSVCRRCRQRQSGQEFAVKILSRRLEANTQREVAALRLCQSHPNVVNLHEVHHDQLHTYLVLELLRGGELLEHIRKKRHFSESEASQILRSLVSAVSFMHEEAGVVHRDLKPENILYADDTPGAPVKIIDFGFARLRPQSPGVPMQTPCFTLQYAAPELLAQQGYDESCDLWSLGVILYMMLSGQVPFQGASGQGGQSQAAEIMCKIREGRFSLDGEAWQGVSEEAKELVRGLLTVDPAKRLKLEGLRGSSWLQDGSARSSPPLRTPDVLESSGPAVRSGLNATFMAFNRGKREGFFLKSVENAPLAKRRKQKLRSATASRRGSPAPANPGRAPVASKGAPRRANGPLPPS
Assay: Kinase Profiling Assay
Type: biochemical
Details: peptide 100 μM
Method in brief: as §1

| Sequence | % activity [%] |
| --- | --- |
| FAKLAARLYRKALARQLGVAA [MMI-0300] | 56 |
| HRRIKAWLKKIKALARQLGVAA (Mammal) [MMI-0500] | 14 |
| KAFAKLAARLYRKALARQLGVAA [MMI-0400] | 52 |
| YARAAARQARAKALNRQLGVA (Mammal) [MMI-0200] | 88 |

Target: FGFR2(h) (Homo sapiens, UniProt P21802)
Assay: Kinase Profiling Assay
Type: biochemical
Details: peptide 100 μM
Method in brief: as §1

| Sequence | % activity [%] |
| --- | --- |
| FAKLAARLYRKALARQLGVAA [MMI-0300] | 14 |
| HRRIKAWLKKIKALARQLGVAA (Mammal) [MMI-0500] | 12 |
| KAFAKLAARLYRKALARQLGVAA [MMI-0400] | 18 |
| YARAAARQARAKALNRQLGVA (Mammal) [MMI-0200] | 73 |

Target: T3, IGF-1R(h), activated (Homo sapiens, UniProt P08069)
T3 construct: purchased Millipore
T3 sequence (P08069 959-1367 limits assumed): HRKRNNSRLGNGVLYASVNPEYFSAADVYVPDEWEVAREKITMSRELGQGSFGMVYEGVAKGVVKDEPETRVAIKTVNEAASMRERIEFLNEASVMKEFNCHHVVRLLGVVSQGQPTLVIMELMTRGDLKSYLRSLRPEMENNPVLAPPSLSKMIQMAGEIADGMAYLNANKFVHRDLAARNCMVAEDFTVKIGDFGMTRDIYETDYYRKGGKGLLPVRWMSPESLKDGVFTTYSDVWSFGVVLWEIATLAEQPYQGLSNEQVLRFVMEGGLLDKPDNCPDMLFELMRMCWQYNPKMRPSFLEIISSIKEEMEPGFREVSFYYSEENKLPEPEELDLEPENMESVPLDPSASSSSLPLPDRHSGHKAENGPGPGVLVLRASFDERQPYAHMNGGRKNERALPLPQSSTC
Assay: Kinase Profiling Assay
Type: biochemical
Details: peptide 100 μM
Method in brief: as §1

| Sequence | % activity [%] |
| --- | --- |
| FAKLAARLYRKALARQLGVAA [MMI-0300] | 80 |
| HRRIKAWLKKIKALARQLGVAA (Mammal) [MMI-0500] | 45 |
| KAFAKLAARLYRKALARQLGVAA [MMI-0400] | 77 |
| YARAAARQARAKALARQLGVAA [MMI-0100] | 126 |
| YARAAARQARAKALNRQLGVA (Mammal) [MMI-0200] | 94 |

Target: T4, ULK3(h) (Homo sapiens, UniProt Q6PHR2)
T4 sequence (Q6PHR2 1-472): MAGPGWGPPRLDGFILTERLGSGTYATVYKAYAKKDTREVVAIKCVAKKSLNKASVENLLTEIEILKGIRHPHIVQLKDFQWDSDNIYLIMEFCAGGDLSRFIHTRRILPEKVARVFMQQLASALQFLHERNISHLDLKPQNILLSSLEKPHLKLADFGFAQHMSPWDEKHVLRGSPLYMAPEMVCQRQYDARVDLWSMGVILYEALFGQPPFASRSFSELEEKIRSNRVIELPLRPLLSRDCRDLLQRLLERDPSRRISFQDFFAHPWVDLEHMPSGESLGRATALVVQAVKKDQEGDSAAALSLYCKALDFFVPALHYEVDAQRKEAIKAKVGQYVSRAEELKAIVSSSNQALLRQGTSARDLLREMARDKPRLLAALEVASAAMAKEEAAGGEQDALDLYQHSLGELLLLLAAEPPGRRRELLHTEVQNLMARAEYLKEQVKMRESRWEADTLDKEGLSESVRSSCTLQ
Assay: Kinase Profiling Assay
Type: biochemical
Details: peptide 100 μM
Method in brief: as §1

| Sequence | % activity [%] |
| --- | --- |
| FAKLAARLYRKALARQLGVAA [MMI-0300] | 167 |
| HRRIKAWLKKIKALARQLGVAA (Mammal) [MMI-0500] | 177 |
| KAFAKLAARLYRKALARQLGVAA [MMI-0400] | 147 |
| YARAAARQARAKALARQLGVAA [MMI-0100] | 142 |
| YARAAARQARAKALNRQLGVA (Mammal) [MMI-0200] | 164 |

Target: T5, PhKγ2(h) (Homo sapiens, UniProt P15735)
T5 sequence (P15735 1-406): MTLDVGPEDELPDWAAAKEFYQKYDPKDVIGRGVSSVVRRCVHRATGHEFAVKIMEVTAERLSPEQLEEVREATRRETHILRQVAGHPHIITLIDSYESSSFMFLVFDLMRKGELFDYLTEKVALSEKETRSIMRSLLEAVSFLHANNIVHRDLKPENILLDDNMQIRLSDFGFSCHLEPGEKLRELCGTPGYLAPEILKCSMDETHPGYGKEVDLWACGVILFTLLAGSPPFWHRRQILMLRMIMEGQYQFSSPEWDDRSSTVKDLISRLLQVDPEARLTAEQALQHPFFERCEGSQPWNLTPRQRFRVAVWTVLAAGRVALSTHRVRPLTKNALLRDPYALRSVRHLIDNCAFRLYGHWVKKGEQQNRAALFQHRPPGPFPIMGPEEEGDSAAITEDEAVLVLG
Assay: Kinase Profiling Assay
Type: biochemical
Details: peptide 100 μM
Method in brief: as §1

| Sequence | % activity [%] |
| --- | --- |
| FAKLAARLYRKALARQLGVAA [MMI-0300] | 46 |
| HRRIKAWLKKIKALARQLGVAA (Mammal) [MMI-0500] | 16 |
| KAFAKLAARLYRKALARQLGVAA [MMI-0400] | 38 |
| YARAAARQARAKALNRQLGVA (Mammal) [MMI-0200] | 86 |

Target: T6, MSSK1(h) (Homo sapiens, UniProt Q9UPE1)
T6 construct: purchased Millipore
T6 sequence (Q9UPE1 whole entry): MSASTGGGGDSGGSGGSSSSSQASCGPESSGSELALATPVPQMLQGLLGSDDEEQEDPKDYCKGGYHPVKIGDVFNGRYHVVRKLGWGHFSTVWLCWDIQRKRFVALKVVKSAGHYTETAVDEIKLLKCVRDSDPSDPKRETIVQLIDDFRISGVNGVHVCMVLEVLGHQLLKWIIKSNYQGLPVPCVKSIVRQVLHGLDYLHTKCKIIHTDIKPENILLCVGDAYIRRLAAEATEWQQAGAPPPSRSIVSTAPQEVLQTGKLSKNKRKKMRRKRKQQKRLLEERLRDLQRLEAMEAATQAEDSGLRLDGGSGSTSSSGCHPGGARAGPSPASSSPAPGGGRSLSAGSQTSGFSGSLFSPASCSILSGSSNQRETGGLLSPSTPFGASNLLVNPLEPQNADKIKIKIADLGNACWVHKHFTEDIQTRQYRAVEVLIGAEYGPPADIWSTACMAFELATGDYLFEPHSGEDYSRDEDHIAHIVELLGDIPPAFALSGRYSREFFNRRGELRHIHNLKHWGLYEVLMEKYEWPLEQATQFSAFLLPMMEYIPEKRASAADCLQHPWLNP
Assay: Kinase Profiling Assay
Type: biochemical
Details: peptide 100 μM
Method in brief: as §1

| Sequence | % activity [%] |
| --- | --- |
| FAKLAARLYRKALARQLGVAA [MMI-0300] | 77 |
| HRRIKAWLKKIKALARQLGVAA (Mammal) [MMI-0500] | 22 |
| KAFAKLAARLYRKALARQLGVAA [MMI-0400] | 75 |
| YARAAARQARAKALARQLGVAA [MMI-0100] | 82 |
| YARAAARQARAKALNRQLGVA (Mammal) [MMI-0200] | 100 |

Target: CDK6/cyclinD3(h) (Homo sapiens, UniProt Q00534)
Sequence (Q00534 whole entry): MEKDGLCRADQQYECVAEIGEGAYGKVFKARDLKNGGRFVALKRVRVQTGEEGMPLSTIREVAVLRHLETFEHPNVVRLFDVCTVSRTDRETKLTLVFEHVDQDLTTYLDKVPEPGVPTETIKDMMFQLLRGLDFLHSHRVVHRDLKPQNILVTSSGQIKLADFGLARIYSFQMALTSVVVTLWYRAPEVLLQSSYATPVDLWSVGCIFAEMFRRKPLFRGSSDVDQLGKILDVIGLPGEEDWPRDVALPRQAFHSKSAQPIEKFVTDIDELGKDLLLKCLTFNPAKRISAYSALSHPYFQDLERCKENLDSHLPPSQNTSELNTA
Sequence (P30281 whole entry partner): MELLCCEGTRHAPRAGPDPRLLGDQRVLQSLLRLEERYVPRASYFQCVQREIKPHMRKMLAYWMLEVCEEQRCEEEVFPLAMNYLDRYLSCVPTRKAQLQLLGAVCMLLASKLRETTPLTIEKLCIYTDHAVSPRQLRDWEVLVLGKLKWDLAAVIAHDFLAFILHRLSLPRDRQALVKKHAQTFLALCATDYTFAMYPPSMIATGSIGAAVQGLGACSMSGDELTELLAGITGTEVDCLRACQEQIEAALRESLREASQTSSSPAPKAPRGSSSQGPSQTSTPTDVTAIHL
Assay: Kinase Profiling Assay
Type: biochemical
Details: peptide 100 μM
Method in brief: as §1

| Sequence | % activity [%] |
| --- | --- |
| FAKLAARLYRKALARQLGVAA [MMI-0300] | 86 |
| HRRIKAWLKKIKALARQLGVAA (Mammal) [MMI-0500] | 23 |
| KAFAKLAARLYRKALARQLGVAA [MMI-0400] | 85 |
| YARAAARQARAKALNRQLGVA (Mammal) [MMI-0200] | 100 |

Target: T7, PKCι(h) (Homo sapiens, UniProt P41743)
T7 sequence (P41743 1-596): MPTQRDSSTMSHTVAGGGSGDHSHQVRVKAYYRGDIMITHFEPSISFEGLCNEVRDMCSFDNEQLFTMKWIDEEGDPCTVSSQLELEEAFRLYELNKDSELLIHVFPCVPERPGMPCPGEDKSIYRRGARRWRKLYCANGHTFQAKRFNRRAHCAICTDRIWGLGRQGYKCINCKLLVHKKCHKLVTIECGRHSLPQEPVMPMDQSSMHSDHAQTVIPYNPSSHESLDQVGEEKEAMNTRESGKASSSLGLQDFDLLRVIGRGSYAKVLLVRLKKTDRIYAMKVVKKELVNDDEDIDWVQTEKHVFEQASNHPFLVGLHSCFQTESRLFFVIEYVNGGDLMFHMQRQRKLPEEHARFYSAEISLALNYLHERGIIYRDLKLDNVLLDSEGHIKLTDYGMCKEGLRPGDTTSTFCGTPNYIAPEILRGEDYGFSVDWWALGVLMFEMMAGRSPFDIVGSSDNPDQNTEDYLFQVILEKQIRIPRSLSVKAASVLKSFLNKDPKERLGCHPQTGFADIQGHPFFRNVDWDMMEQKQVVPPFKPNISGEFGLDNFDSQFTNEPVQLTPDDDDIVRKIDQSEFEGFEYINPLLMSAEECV
Assay: Kinase Profiling Assay
Type: biochemical
Details: peptide 100 μM
Method in brief: as §1

| Sequence | % activity [%] |
| --- | --- |
| FAKLAARLYRKALARQLGVAA [MMI-0300] | 68 |
| HRRIKAWLKKIKALARQLGVAA (Mammal) [MMI-0500] | 7 |
| KAFAKLAARLYRKALARQLGVAA [MMI-0400] | 46 |
| YARAAARQARAKALARQLGVAA [MMI-0100] | 110 |
| YARAAARQARAKALNRQLGVA (Mammal) [MMI-0200] | 97 |

Target: CaMKIδ(h) (Homo sapiens, UniProt Q8IU85)
Sequence (Q8IU85 whole entry): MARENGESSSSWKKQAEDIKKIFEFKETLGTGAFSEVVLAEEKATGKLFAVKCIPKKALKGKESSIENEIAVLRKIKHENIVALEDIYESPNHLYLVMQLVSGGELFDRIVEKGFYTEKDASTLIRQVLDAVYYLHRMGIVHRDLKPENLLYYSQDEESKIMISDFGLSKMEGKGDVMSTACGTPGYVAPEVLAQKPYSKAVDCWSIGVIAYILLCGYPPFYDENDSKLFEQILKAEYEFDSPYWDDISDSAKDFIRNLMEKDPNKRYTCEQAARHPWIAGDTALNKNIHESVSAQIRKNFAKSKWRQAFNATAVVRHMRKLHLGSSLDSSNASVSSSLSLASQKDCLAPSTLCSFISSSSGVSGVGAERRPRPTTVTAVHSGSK
Assay: Kinase Profiling Assay
Type: biochemical
Details: peptide 100 μM
Method in brief: as §1

| Sequence | % activity [%] |
| --- | --- |
| FAKLAARLYRKALARQLGVAA [MMI-0300] | 10 |
| HRRIKAWLKKIKALARQLGVAA (Mammal) [MMI-0500] | 0 |
| KAFAKLAARLYRKALARQLGVAA [MMI-0400] | 17 |
| YARAAARQARAKALNRQLGVA (Mammal) [MMI-0200] | 47 |

Target: CK1δ(h) (Homo sapiens, UniProt P48730)
Sequence (P48730 whole entry): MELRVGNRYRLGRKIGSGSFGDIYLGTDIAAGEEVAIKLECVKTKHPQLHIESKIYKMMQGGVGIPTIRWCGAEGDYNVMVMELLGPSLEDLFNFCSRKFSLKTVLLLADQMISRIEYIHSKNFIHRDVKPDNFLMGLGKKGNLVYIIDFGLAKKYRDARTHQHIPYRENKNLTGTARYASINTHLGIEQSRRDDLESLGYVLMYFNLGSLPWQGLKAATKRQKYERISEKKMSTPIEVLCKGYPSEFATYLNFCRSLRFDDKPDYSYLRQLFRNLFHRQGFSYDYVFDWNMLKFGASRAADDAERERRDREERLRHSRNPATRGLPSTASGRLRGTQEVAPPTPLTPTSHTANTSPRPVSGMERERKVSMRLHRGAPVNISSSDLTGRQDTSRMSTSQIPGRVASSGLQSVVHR
Assay: Kinase Profiling Assay
Type: biochemical
Details: peptide 100 μM
Method in brief: as §1

| Sequence | % activity [%] |
| --- | --- |
| FAKLAARLYRKALARQLGVAA [MMI-0300] | 92 |
| HRRIKAWLKKIKALARQLGVAA (Mammal) [MMI-0500] | 78 |
| KAFAKLAARLYRKALARQLGVAA [MMI-0400] | 93 |
| YARAAARQARAKALNRQLGVA (Mammal) [MMI-0200] | 92 |

Target: cSRC(h) (Homo sapiens, UniProt P12931)
Assay: Kinase Profiling Assay
Type: biochemical
Details: peptide 100 μM
Method in brief: as §1

| Sequence | % activity [%] |
| --- | --- |
| FAKLAARLYRKALARQLGVAA [MMI-0300] | 26 |
| HRRIKAWLKKIKALARQLGVAA (Mammal) [MMI-0500] | 30 |
| KAFAKLAARLYRKALARQLGVAA [MMI-0400] | 14 |
| YARAAARQARAKALNRQLGVA (Mammal) [MMI-0200] | 32 |

Target: T8, MLK1(h) (Homo sapiens, UniProt P80192)
T8 construct: purchased Millipore
Assay: Kinase Profiling Assay
Type: biochemical
Details: peptide 100 μM
Method in brief: as §1

| Sequence | % activity [%] |
| --- | --- |
| FAKLAARLYRKALARQLGVAA [MMI-0300] | 40 |
| HRRIKAWLKKIKALARQLGVAA (Mammal) [MMI-0500] | 43 |
| KAFAKLAARLYRKALARQLGVAA [MMI-0400] | 33 |
| YARAAARQARAKALARQLGVAA [MMI-0100] | 77 |
| YARAAARQARAKALNRQLGVA (Mammal) [MMI-0200] | 84 |

Target: cKit(D816V)(h) (Homo sapiens, UniProt P10721, D816V)
Assay: Kinase Profiling Assay
Type: biochemical
Details: peptide 100 μM
Method in brief: as §1

| Sequence | % activity [%] |
| --- | --- |
| FAKLAARLYRKALARQLGVAA [MMI-0300] | 60 |
| HRRIKAWLKKIKALARQLGVAA (Mammal) [MMI-0500] | 30 |
| KAFAKLAARLYRKALARQLGVAA [MMI-0400] | 35 |
| YARAAARQARAKALNRQLGVA (Mammal) [MMI-0200] | 118 |

Target: FAK(h) (Homo sapiens, UniProt Q05397)
Sequence (Q05397 whole entry): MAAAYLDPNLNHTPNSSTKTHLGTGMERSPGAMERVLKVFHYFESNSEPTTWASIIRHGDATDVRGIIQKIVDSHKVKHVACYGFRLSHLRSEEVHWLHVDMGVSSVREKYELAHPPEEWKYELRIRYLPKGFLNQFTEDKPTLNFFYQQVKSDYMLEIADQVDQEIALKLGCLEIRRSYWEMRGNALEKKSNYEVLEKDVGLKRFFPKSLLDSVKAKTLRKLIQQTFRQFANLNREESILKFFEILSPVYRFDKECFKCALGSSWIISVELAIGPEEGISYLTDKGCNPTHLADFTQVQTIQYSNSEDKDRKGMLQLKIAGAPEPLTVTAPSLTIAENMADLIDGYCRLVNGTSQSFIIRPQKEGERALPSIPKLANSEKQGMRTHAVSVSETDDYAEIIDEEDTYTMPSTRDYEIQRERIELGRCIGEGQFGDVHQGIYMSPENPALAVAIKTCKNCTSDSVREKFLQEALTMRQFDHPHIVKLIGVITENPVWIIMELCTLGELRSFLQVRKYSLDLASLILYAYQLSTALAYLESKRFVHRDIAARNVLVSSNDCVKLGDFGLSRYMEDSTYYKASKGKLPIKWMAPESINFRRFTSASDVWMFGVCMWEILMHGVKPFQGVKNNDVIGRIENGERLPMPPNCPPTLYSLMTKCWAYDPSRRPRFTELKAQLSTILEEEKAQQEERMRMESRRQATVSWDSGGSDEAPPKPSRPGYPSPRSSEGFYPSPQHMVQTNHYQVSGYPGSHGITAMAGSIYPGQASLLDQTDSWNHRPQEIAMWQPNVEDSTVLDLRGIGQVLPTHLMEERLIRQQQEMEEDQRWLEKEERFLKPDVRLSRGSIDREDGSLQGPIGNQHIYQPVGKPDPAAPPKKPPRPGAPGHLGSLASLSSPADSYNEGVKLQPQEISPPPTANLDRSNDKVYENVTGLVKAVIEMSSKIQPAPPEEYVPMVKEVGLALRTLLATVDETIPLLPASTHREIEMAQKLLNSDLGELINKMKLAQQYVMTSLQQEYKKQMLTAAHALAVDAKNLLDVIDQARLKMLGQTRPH
Assay: Kinase Profiling Assay
Type: biochemical
Details: peptide 100 μM
Method in brief: as §1

| Sequence | % activity [%] |
| --- | --- |
| HRRIKAWLKKIKALARQLGVAA (Mammal) [MMI-0500] | 94 |
| KAFAKLAARLYRKALARQLGVAA [MMI-0400] | 96 |
| YARAAARQARAKALNRQLGVA (Mammal) [MMI-0200] | 110 |
